Key:
[1] = target: geminin (Xenopus laevis (endogenous in eggs and embryos)) (UniProt O93352); test: co-IP
[2] = target: Cdt1 (Xenopus laevis (endogenous in eggs and embryos)) (UniProt Q9I9A7); test: co-IP

Row | Substance | decline of co-precipitation over 20 minutes after fertilisation [1] [%] | decline of co-precipitation over 20 minutes after fertilisation [2] [%]
1 | Cdt1 (from UniProt Q9I9A7 1-617) (natural protein) | > 50 | 
2 | geminin (from UniProt O93352 1-219) (natural protein) |  | > 50

— article PMC3492748
